Tested on: MS2 coat protein
Assay: apparent KD of MS2 coat protein; designed switch direction (-1 OFF switch, 1 ON switch): 1; higher = weaker reporter binding
In short: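 Transcription of designed RNA switches on Illumina chips was done by stalled E. coli RNA polymerase. SNAP-549-labelled MS2 coat protein was then titrated in doubling steps from 0.7 or 1.5 nM to 3 µM, with steps of 0.8–1.5 h at the lowest and 10–20 min at the highest concentration. The per-design median over clusters of curve-fitted normalised fluorescence is reported as apparent KD.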

[1] = input ligand: microRNA oligo, concentration not stated
[2] = Eterna round: R95, input ligand: FMN 200 uM
[3] = Eterna round: R95, input ligand: microRNA oligo, concentration not stated
[4] = Eterna round: R95, input ligand: none

Sequence | apparent KD of MS2 coat protein (input ligand: FMN 200 uM) | apparent KD of MS2 coat protein [1] | apparent KD of MS2 coat protein (input ligand: none) | apparent KD of MS2 coat protein [2] | apparent KD of MS2 coat protein [3] | apparent KD of MS2 coat protein [4]
ACAUGAGAUUGAGGAUAUAUUGUACCUACAUGUGACAUGAGGAUCACCCAUGUGGUAAGUAUGACAUAGAAGGCAAAGAUAUGU [Equivalance 81 - Jieux - Same State NG 2] (Eterna round: R96, puzzle: Same State NG 2) | 87.1 nM | 54.1 nM | 74.4 nM | – | – | –
UAGUACAUGCUUUUUGUCUGUCUUAGAUCACAUGAGGAUCACCCAUGUUUGGUGAAAGUUAUUUUGUUUAUGACUAU [JR_SHM208A_Sub060] (puzzle: Sensor for hsa-mir-208a) | – | – | – | 257 nM | 194 nM | 430 nM
GUAAAACAUGAGGAUCACCCAUGUAAUAAUAUGGGAGGAUAUGCGAAUUUAAUUAUUUAAGCAGAAGGCCUAAAUG [Mat - Same State 1 - D99] (puzzle: Same State 1) | – | – | – | 21.2 nM | 172 nM | 149 nM
UUAAUAAAGUAAGGAUAUACAUGAGGAUCACUCGUAGAAGGUACUAAACAUGAGGAUCACCCAUGUACCGGUCCGUAGACUGGA [Mat - Same State NG 1 - JL mod - D1] (Eterna round: R96, puzzle: Same State NG 1) | 844 nM | 108 nM | 364 nM | – | – | –
GUUAAACAUGAGGAUCACCCAUGUCAAUGUAGUCGAGGAUAUGGGCAGCUAUGAGGCGUACUAGAAGGCGAUGAGU [Mat - Same State 1 - Mod of JL - D14] (puzzle: Same State 1) | – | – | – | 38.6 nM | 133 nM | 150 nM
UACAAUCUAUCUGAGGAUAUCAUGAUUGUAACAUGAGGAUCACCCAUGUGCAGGAAAACUGCAUAUGAGAAGGCAGAUAGAUUGU [salish99_ss2_r3_071] (puzzle: Same State 2) | – | – | – | 113 nM | 78 nM | 708 nM
UAUUCAUUCAGAGGAUAUUGUUUAUCUCUAUUUCAAGAAGGCUGAUUUUACUACUUACUUAUGAAACAUGAGGAUCACCCAUGU [JR_SSNG1_Sub020] (Eterna round: R96, puzzle: Same State NG 1) | – | 18.7 nM | – | – | – | –
GCUCGCACGAUGACCCACAUGAGGAUCACCCAUGUGUGUGGGCAGGAUAUCUAGAUUAAGGAUGUAGAGAAGGGUUGAGCGAGC [SameState NG3 #24] (Eterna round: R96, puzzle: Same State NG 3) | 513 nM | 133 nM | 138 nM | – | – | –
UAGCUCGUGUGAGGAUAUGCCGCCGUUUCGGCUGCAGAAGGUGCUACGUUACAUGAGGAUCACCCAUGUCUCUGUUGUUUCGUC [salish99_SSNG1_r04_955] (Eterna round: R96, puzzle: Same State NG 1) | – | 23.9 nM | – | – | – | –
AUUAAACAUGAGGAUCACCCAUGUCAACAAAGUCGAGGAUAUGGGCAAAUAUAAUAAGAACCAGAAGGCGAAUAAU [salish99_ss1_r3_059] (puzzle: Same State 1) | – | – | – | 28 nM | 190 nM | 227 nM
GCCAUCGCAUGAGGAUAUGGCACCGUUUCGGUGCCAGAAGGCAUGUCGUAAGACAUGAGGAUCACCCAUGUAGUUAAGAUGGCA [JL Fiskers NG1ss - 33 mod 8] (Eterna round: R96, puzzle: Same State NG 1) | 219 nM | 101 nM | 407 nM | – | – | –
GGUAGGUUACUACCAAACAUGAGGAUCACCCAUGUAAGUGGGAAGGAUAUGGUACCUUUUAGGUACCAGAAGGUCCAUAUAAUU [JL Fiskers NG3ss - 2 mod 6] (Eterna round: R96, puzzle: Same State NG 3) | 177 nM | 2450 nM | 3220 nM | – | – | –
AUUAUUAAUGCAGGAUAUGAUUAACAUGAGGAUCACCCAUGUGGUGUUGUGAGUAAGGAGAGUGAUCAGAAGGGCAUCUUUUUU [JMF's solution 10] (Eterna round: R96, puzzle: Same State NG 2) | 470 nM | 312 nM | 359 nM | – | – | –
AUGAAGAAUUAAGGAUAUUGAUUACAUAUGUUUAACAUGAGGAUCACCCAUGUGGGUUGCGGUAUCGAGAAGGUAAAUUACAAG [Mat - same State NG 2 - JL mod - D87] (Eterna round: R96, puzzle: Same State NG 2) | 177 nM | 132 nM | 187 nM | – | – | –
AAAAGACAUGAGGAUCACCCAUGUAACGGUCGUCAAGGAUAUGCAUAGGUCCAUUGACCAGCAGAAGGUGAUACCU [Xeanlarace] (puzzle: Same State 1) | – | – | – | 400 nM | 56.6 nM | 38.3 nM
UACAAUCUAUCUGAGGAUAUCAUGAAUAUAACAUGAGGAUCACCCAUGUGCAGGAAAACUGCAUAUGAGAAGGCAGAUAGAUUGU [salish99_ss2_r3_068] (puzzle: Same State 2) | – | – | – | 61.3 nM | 49.2 nM | 109 nM

Sequence | apparent KD of MS2 coat protein (input ligand: FMN 200 uM) | apparent KD of MS2 coat protein [1] | apparent KD of MS2 coat protein (input ligand: none) | apparent KD of MS2 coat protein [2] | apparent KD of MS2 coat protein [3] | apparent KD of MS2 coat protein [4]
GCUAGAAUUAAAGCCAACAUGAGGAUCACCCAUGUAUGUUGGUAGGAUAUCGUUUGCUUUGCAAACGAGAAGGGCCAAACUAGC [JL SSNG3 1.07] (Eterna round: R96, puzzle: Same State NG 3) | 64.7 nM | 142 nM | 111 nM | – | – | –
CGGAAACGAUGAGGAUAUGCAGAGGAUCACCCUGUAGAAGGCAAGAGAUGAGGAUAUGCAGAGGAUCACCCUGUAGAAGGCAAC [pwkr ssNG DX.4] (Eterna round: R96, puzzle: Same State NG 1) | 146 nM | 56.5 nM | 84.9 nM | – | – | –
UUGCGGAAUUAAGGAUAUUGAGUACAUAUGUUUAACAUGAGGAUCACCCAUGUGGGUUGCGGUAUCGAGAAGGUAACUUACUAC [salish99_SSNG2_r04_803] (Eterna round: R96, puzzle: Same State NG 2) | 110 nM | 80.5 nM | 102 nM | – | – | –
UUCACCUUUUUUAACAUGAGGAUCACCCAUGUAUAUUGUACGUAGGAUAUCGAUGCUUUUUUUUUCGAGAAGGACGAUGUAAGU [JR_SSND3_Sub051] (Eterna round: R96, puzzle: Same State NG 3) | 38.6 nM | 34.2 nM | 37.5 nM | – | – | –
AUAAGUUCGAUGCUCGUCUCUCCGUACAAACAUGAGGAUCACCCAUGUGAUUAGGCAGUAGCCCAAUCAGUAUGGCC [Ariusveri] (puzzle: Sensor for hsa-mir-208a) | – | – | – | 38.7 nM | 21.8 nM | 43.4 nM
AUUACUAACAUAGGAUAUCAUGCGAAAAUUGCGUGAGAAGGGUGGACGCUGUCAUUCACGGAGGACAUGAGGAUCACCCAUGUC [SameState NG1 #72] (Eterna round: R96, puzzle: Same State NG 1) | 264 nM | 103 nM | 143 nM | – | – | –
GCUAGAAAUAAAGCCAACAUGAGGAUCACCCAUGUAUGUUGGUAGGAUAUCGUAUGCAAAGCAUACGAGAAGGGCUAAACUAGC [Mat - Same State NG 3 - JL Mod - D18] (Eterna round: R96, puzzle: Same State NG 3) | 91.6 nM | 77.5 nM | 93.7 nM | – | – | –
GUUAGGAAUCUAGCAAACAUGAGGAUCACCCAUGUUAGUGGGAAGGAUAUGGUACAGAAACUGUACCAGAAGGUCUUAUUGUUU [Omei SS(NG) 3 AV9] (Eterna round: R96, puzzle: Same State NG 3) | 580 nM | 403 nM | 439 nM | – | – | –
AGAAAACAUGAGGAUCACCCAUGUAGAAAUAUGGGAGGAUAUACAAAGACGAAAGUCAGAGUAGAAGGCCUAAAAA [salish99-SS1-085] (Eterna round: R96, puzzle: Same State 1) | – | 46.6 nM | – | – | – | –
GUUACAUGAGGAUCACCCAUGUAUGUGUGGGAGUAAGUGUCUUAGGAUAUCUAUUAUUUAAUUGAAGAGAAGGAAGAUUGUUGU [JMF's solution 26] (Eterna round: R96, puzzle: Same State NG 3) | 160 nM | 95 nM | 112 nM | – | – | –
AGUCCAGCAUGAGCUGGACAAAAGCAUGUACAUGAGGAUCACCCAUGUUCAUGUACAAGCUUUUUGCUCGUCAAAAG [Mat - hsa-mir-208a - Mod of JL - 70] (puzzle: Sensor for hsa-mir-208a) | – | – | – | 225 nM | 19.6 nM | 320 nM
GUUACAUGAGGAUCACCCAUGUAUGUGUGGGAGUAAGUGUCUUAGGAUAUCUGUUAUGUAAUUUAAGAGAAGGAAGAUUGUUGU [JMF's solution 34] (Eterna round: R96, puzzle: Same State NG 3) | 282 nM | 300 nM | 296 nM | – | – | –
UGUUGUAUUACAGGAUAUCUAGUAUUUAUAUUUAGAGAAGGGUAUUCACAUGAGGAUCACCCAUGUAUAUACGAGGAAGUUGUG [JMF's solution 41] (Eterna round: R96, puzzle: Same State NG 1) | – | 36.9 nM | – | – | – | –
AUAUGAGAAGCAGGAUAUGUGAAAAAAAAACAUACAGAAGGGUUUAUGGAAAAACAUGAGGAUCACCCAUGUUCUUUGUGAUGA [AK SSNG1-V2-1] (Eterna round: R96, puzzle: Same State NG 1) | – | 29.6 nM | – | – | – | –
AUUAUCAAUGCAGGAUAUGAUUAACAUGAGGAUCACCCAUGUGGUGUUGUGAGUAAGGAGAGUGAUCAGAAGGGCAUUUUUUUU [JMF's solution 26] (Eterna round: R96, puzzle: Same State NG 2) | 575 nM | 261 nM | 475 nM | – | – | –

Source: the supplement of paper PMC9170038
